Laboratory results published in publication PMC8069203, “Highly Sensitive Electrochemical Aptasensor for Detecting the VEGF165 Tumor Marker with PANI/CNT Nanocomposites”.

Molecular target: VEGF165 (UniProt P15692-4 27-191)
Assay: electrochemical aptasensor; PANI/CNT electrode; linear 0.5 pg/mL to 1 ug/mL, LOD 0.4 pg/mL (not a Kd); PBS rinsing, ferri/ferrocyanide redox probe; aptamer immobilized on PANI/CNT screen-printed carbon electrode; pH, salt and temperature not given in the material
Conditions: protein: commercial; chain copies: 2

Chain of VEGF165 (P15692 other isoform, or with tags, fused parts or gaps): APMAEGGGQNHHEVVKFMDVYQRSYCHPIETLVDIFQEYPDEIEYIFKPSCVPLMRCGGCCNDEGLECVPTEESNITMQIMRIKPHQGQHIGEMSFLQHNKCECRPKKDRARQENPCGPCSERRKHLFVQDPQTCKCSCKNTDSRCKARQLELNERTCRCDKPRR

B1: anti-VEGF165 RNA aptamer (structured_RNA)
RNA: AUGCAGUUUGAGAAGUCGCGCAU
modifications: 5'-NH2, coupled by amide bond to PANI/CNT carboxyl groups (DMT-MM)
binding result: binds
